Assay [1] has as its target T1, cloned receptor (rat glucagon receptor, pLJ4) (Rattus norvegicus, UniProt P30082).
T1 construct: pLJ4 contained an approximately 2 kb insert encoding a 485 amino acid protein; expressed in transfected cells; host or cells: BHK570
Description: Competition binding / Scatchard analysis with ^125 I-glucagon on membranes of pLJ4 BHK transfectants. Here is the method:
Membranes from the pLJ4 BHK transfectants were compared with rat liver membrane preparations for the ability to bind ^125 I-glucagon. Membranes were prepared essentially described by Rodbell et al. (J. Biol Chem. 246:1861-1871, 1971, which is incorporated by reference herein in its entirety). Two batches of liver membranes were each prepared from approximately 80 gm of liver from 12 to 16 decapitated young female rats. The livers were removed quickly and placed into an iced beaker. The livers were separated into ten-gram portions. The portions were minced with scissors, and connective tissue was removed during the mincing procedure. The portions were separately homogenized in a Dounce homogenizer. To each portion, 25 ml of Medium (Table 2) was added to the minced tissue in the homogenizer, and the tissue was homogenized in an ice bucket with eight vigorous strokes of the loose pestle. After homogenization, the homogenates were pooled into 450 ml of cold Medium (Table 2). The pooled homogenates were stirred for 3 minutes and filtered through two layers of cheesecloth followed by filtering through four layers of cheesecloth. The homogenates were then centrifuged for 30 minutes at 1500×g at 4° C. The supernatants were discarded, and the pellets were pooled into a clean Dounce homogenizer. The pellets were resuspended with three gentle strokes of the loose pestle. The resuspended pellets were decanted into a 250 ml graduate containing 62 ml of 69% Sucrose Solution (Table 2). Distilled water was added to a final volume of 110 ml, and the mixture was thoroughly mixed and kept cold. The concentration of the solution was adjusted to 44.0%+/-0.1% using 69% sucrose or water as measured by a refractometer (Bausch & Lomb, Rochester, N.Y.). […]
To each tube 100 μl of 2× binding buffer; 20 μl of ^125 I-glucagon (Amersham); 20 μl of 1 mM NaHCO3; 20 μl 10 mM HOAc, 0.5% BSA (Novo Nordisk N/A, Bagsvaerd, Denmark); and 40 μl of distilled water were added. […] The supernatants from each sample were aspirated, and the pellets were counted. […]

Assay [2] relates to Human Glucagon Receptor (pLJ6') in COS 7 cells. Description: In situ ^125 I-glucagon binding with emulsion autoradiography, pLJ6'-transfected COS 7 cells. The conditions noted are these: 72 hours after transfection. How it is done:
(§1) To prepare the transfectants for the ^125 I-glucagon binding assay, the spent media were aspirated from the cells, and the cells were washed three times with cold (4° C.) PBS. After the final wash, the cells were covered with Binding Media (Table 2) and incubated for ten minutes at room temperature. The media were replaced with 0.5 ml of Binding Media containing 0.5 nM ^125 I-glucagon (Amersham receptor grade, specific activity 2000 Ci/mmole; Amersham). The cells were then rocked at 30° C. for one hour. […] The media were aspirated from the cells, and the cells were washed three times with cold (4° C.) PBS. After the final wash, the cells were fixed with 1 ml of 2.5% glutaraldehyde in PBS at room temperature for 20 minutes. The glutaraldehyde was removed, and the cells were rinsed three time with PBS. The slides were air dried for one hour at room temperature, dipped in liquid photographic emulsion (Eastman Kodak Co., Rochester, N.Y.) according the manufacturer's directions, and dried at room temperature in the dark for at least 30 minutes. The slides were then plated in a light-proof box for 72 hours at 4° C.
Plasmid pLJ6' was transfected into COS 7 cells using a DEAE-dextran procedure described above. The cells were grown on glass chamber slides (as described in Example 3) for 72 hours after transfection.

Assay [3] deals with Human Glucagon Receptor (pLJ6') in BHK570 cells. Put plainly: In situ binding of iodinated glucagon, pLJ6'-transfected BHK570 clones. How it is done:
as §1
Transfected cells were selected in the presence of G418 until single colonies were visible. Single colonies were cloned using cloning cylinders.

In the next assay the target is T2, rat glucagon receptor (Rattus norvegicus, UniProt P30082).
T2 construct: pLJ4 contained an approximately 2 kb insert encoding a 485 amino acid protein; expressed in transfected cells; host or cells: BHK/KZ6-19-46 (BHK570 with CRE-luciferase plasmid KZ6), clone KZ6/rGR-DHFR-2
Description: cAMP response of clone KZ6/rGR-DHFR-2 by cAMP [^125 I] scintillation proximity assay. Conditions: 10 minutes at 37° C., 10 μM IBMX, read-out: ED50 (the source's name). The assay is classed as cell-based. How it is done: Briefly, 100 μl of 2×10^5 cells per ml KZ6/rGR-DHFR-2 cells were plated into the wells of a multi-well culture dish and grown overnight in selection media.
The cells were incubated with the agonists for 10 minutes at 37° C., 5% CO2. Following incubation, the cells were lysed by the addition of 200 μl of boiling water to each well. After 15 minutes the supernatants were collected and diluted 1:5 or 1:40 in acetate buffer (cAMP [^125 I] Scintillation Proximity Assay System (Amersham)). Samples were acetylated using triethylamine and acetic anhydride according to the protocol provided by the manufacturer.
A 100 μl aliquot of each acetylated sample was combined with 75 μl of ^125 I-cAMP, 75 μl anti-succinyl cAMP antisera and 75 μl of donkey anti-rabbit IgG coupled SPA beads (all assay solutions provided in the cAMP [^125 I] Scintillation Proximity Assay System (Amersham)) in a well of an LKB T-tray. The trays were sealed and incubated overnight with continuous shaking on a rotary platform shaker at 200 rpm. The samples were counted in a 1205 BETAPLATE liquid scintillation counter (Pharmacia LKB Instruments Inc., Gaithersburg, Md.). A standard curve of 2-128 fmol acetylated cAMP was also run. Total ^125 I-cAMP bound and non-specific binding were also determined.
(SPA uses beads or plates that emit light when radiolabelled molecules are held near them.)

We go through one substance from patent US5919635A (ZymoGenetics, Inc., priority 1995, dated 1999).

T1 sequence (P30082 27-485): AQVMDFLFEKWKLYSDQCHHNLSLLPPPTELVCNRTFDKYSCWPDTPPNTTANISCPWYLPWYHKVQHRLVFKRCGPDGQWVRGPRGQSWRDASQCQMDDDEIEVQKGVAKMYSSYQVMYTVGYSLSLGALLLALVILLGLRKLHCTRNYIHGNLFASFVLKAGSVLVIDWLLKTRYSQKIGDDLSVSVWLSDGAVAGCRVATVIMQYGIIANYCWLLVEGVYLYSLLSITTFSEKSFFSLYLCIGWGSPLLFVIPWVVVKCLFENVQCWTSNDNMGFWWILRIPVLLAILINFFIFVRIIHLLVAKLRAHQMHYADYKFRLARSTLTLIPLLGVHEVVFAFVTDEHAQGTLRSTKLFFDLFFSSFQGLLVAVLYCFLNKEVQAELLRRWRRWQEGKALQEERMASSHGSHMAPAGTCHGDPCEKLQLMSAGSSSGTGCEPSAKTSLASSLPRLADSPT
T2 sequence (P30082 27-485): as above

Turning to “glucagon: 29 amino acid hormone produced by the alpha cells of pancreatic islets; human glucagon (Sigma)”, the Kd in assay [1] (Scatchard analysis, cloned receptor, BHK transfectant membranes, 30 minutes at 30° C., read-out: apparent Kd) stood at 50 nM. Also, the “ability to compete for ^125 I-glucagon binding” value in assay [1] (micromolar amounts (Table 7: 1 μM glucagon and des-His^1 [Glu^9]glucagon amide)) is recorded as “able to compete”. Moreover, the “cells transfected with pLJ6' that bound glucagon in a specific fashion” value in assay [2] is on record as “Greater than 50%”. For the same substance, the “binding of glucagon by clones (in words)” value in assay [3] was “shown to bind glucagon”. For the same substance, the EC50 with rat glucagon receptor was found to be 0.25 nM.
